Source: patent US20170002074A1 (Genentech, published 2017)
Positions count from the first letter of the chain named.

B1: 9C3 (antibody, V domains shown)
VH: EVQLVESGGALIQPGGSLRLSCVASGFTISGNYMSWVRQAPGKGLEWVSLIYSGDSTYYADSVKGRFNISRDISKNTVYLQMNSLRVEDTAVYYCVRDGYYVSDMVVWGKGTTVTVSS
VL: DIQMTQSPSSLSASVGDRVTITCRASQGIRNDLGWYQQKPGKAPKRLIYAASSLQSGVPSRFSGSGSGTEFTLTISSLQPEDFATYYCLQHNSYPWTFGQGTKLEIK
modifications: atypical N-linked glycosylation site in the heavy chain between CDR2 and CDR3 at position 69 (kabat #)
B2: 10D3 (antibody, V domains shown)
VH: EVQLVESGAEVKKPGSSVKVSCKASGGTLISHAISWVRQVPGQGLEWMGGIIPIFGSANYAQKFQGRVTITADDSTNTAYLELSSLRSEDTAVYYCARELLDVFDIWGQGTMVTVSS
VL: not shown
B3: 9C2 (antibody, V domains shown)
VH: QVQLVQSGAEVKKPGSSVKVSCKASGDTFSSYSISWVRQAPGQGLEWMGEIIPIFGTADYAQKFQGRVTITADISTTTAYMELSSLRSEDTAVYYCARTWADAFDIWGQGTMVTVSS
VL: not shown
B4: 15G15.33 (antibody, V domains shown)
VH: QVQLVQSGAEVKKPGSSVKVSCKASGGIFSNHAISWVRQAPGQGLEWMGGIIPIFGTANYAQKFQGRVTITADESTSTAFMELSSLRSEDTAVYYCAREWADVFDIWGQGTMVTVSS
VL: EIVLTQSPLSLPVTPGEPASISCRSSQSLLHSNGYNYLDWYLQKPGQSPQLLIYLGVNSVSGVPDRFSGSGSGTDFTLKISRVEAEDVGVYYCMQALQTPWTFGQGTKVEIK
notes: Variant of 15G15
B5: 15G15.83 (antibody, V domains shown)
VH: B4 VH
VL: B4 VL with V57A, N58Y, S59T
notes: Variant of 15G15
B6: 15G15.88 (antibody, V domains shown)
VH: B4 VH
VL: B4 VL with V57N, N58Y, S59R
notes: Variant of 15G15
B7: 33H4 (antibody, V domains shown)
VH: EVQLQQSGAELVKPGASVKMSCKAFGYTFTTFPIEWMKQSHGKSLEWIGNFHPYNDQTKYNEEFKGRAKLTIDRSSSTVYLELGRLTSDDSAVYYCARGYYYAFDFWGQGTTLTVSS
VL: DIQMTQSPASLTVSLGQRATISCRASESVDSYGNSYLHWYQQKPGQPPQLLIYLASNLESGVPARFSGSGSRTDFTLTIDPVEADDAATYYCQQNNEDPWTFGGGTKVEIK
B8: 33F9 (antibody, V domains shown)
VH: EVQLQQSGPELVKPGASVKMSCKASGYTFTSYVMHWMKQKPGQGLEWIGYINPYNDGTKYNDKFKGKATLTSDKSSSTAYMELSSLTSEDSAVYYCARGSNYEDFAMDYRGQGTSVTVSS
VL: DIVMTQSPASQSASLGESVTITCLASQTIGTWLAWYQQKPGKSPQLLIYAATTLADGVPSRFSGSGSGTKFSFKISSLQAEDFVSYYCQQLYSTPLTFGGGTKVEIK
B9: 27C6 (antibody, V domains shown)
VH: EVQLQQSGPELVKPGASVKVSCKASGYAFTSYNMYWVKQSHGKSLEWIGYIDPYNGGTRHNQKFKDKATLTVDKSSSTAYMHLNSLTSEDSAVYYCASQNYEYFDYWGQGTTLTVSS
VL: DIVLTQSPKFMSTSVGDRVSITCKASQDVGDAVAWYQQKPGQSPKLLFYWTSTRHTGVPDRFTGSGSGTEFTLTIRNVQSEDLADYFCQQYRSTPLTFGSGTKVEIK
B10: 9C3.2 (antibody, V domains shown)
VH: B1 VH with N68T
VL: B1 VL
notes: Variant of 9C3 with the heavy chain N-glycosylation site removed
B11: 9C3.3 (antibody, V domains shown)
VH: B1 VH with N68S
VL: B1 VL
notes: as for B10
B12: 9C3.4 (antibody, V domains shown)
VH: B1 VH with N68A
VL: B1 VL
notes: as for B10
B13: 15G15 (antibody, V domains shown)
VH: B4 VH
VL: not shown
B14: 7A1 (antibody, V domains shown)
VH: B4 VH with I28T, S30T, N31S, H32Y, I34V, N59D, F80Y, W100L
VL: not shown
B15: 23E4 (antibody, V domains shown)
VH: EVQLQQSGAELVRPGASVKLSCKASGYTFTNYWMNWVKQRPGQGLEWIGMIDPSDNETHYSQMFKDKATLTVDKSSSTAYMQLISLTSEDSAVYYCAGYYGNFGWFVYWGQGTLVTVSA
VL: DIFMTQTPLSLPVSLGDPASISCRSSQTIVHSNGNTYLEWYLQKPGQSPKLLIYKVSNRFSGVPDRFSGSGSGTDFTLKISRVEAEDLGVYYCFQGSHVPPTFGGGTKVEIK

The binders below were run against T1, Human CD33 (human, UniProt P20138 18-364) (assay: Scatchard analysis, [125I]-labeled antibody competed by unlabeled antibody, HEK293AD cells stably expressing human CD33).
T1 construct: One molecule is used for recombinant CD33 on HEK293AD/293 cells and for endogenous human CD33 on tumor or myeloid cells; the cell is named under assay; also called huCD33; hu CD33

| Kd | Binder |
| --- | --- |
| 0.8 nM | B1 |
| 3.3 nM | B2 |
| 6.5 nM | B3 |
| 0.7 nM | B4 |
| 0.5 nM | B5 |
| 0.7 nM | B6 |
| 2.4 nM | B7 |
| 8.7 nM | B8 |
| 13.4 nM | B9 |

Each binder was assayed against T1, Human CD33 (assay: Scatchard analysis, [125I]-labeled antibody competed by unlabeled antibody, Molm-13 cells (endogenous CD33)).

| Kd | Binder |
| --- | --- |
| 5.8 nM | B1 |
| 2 nM | B10 |
| 2.2 nM | B11 |
| 2.7 nM | B12 |
| 2.6 nM | B2 |
| 10.3 nM | B3 |
| 0.9 nM | B4 |
| 0.5 nM | B5 |
| 0.8 nM | B6 |
| 0.6 nM | B7 |
| ~9.2 nM | B8 |
| 23 nM | B9 |

These binders were tested against T2, huCD33 R69G variant (human, UniProt P20138 18-364) (assay: FACS, direct Dylight 488 conjugate, on 293AD cells labelled 'SNPG69R', taken as the SNP variant of paragraph 650).
T2 construct: also called G69 CD33; SNP R69G (r2455069)

| Geom. Mean:FL1-H | Binder |
| --- | --- |
| 103 | B2 |
| 71.7 | B3 |
| 123 | B13 |
| 125 | B14 |

Molecular target: T2, huCD33 R69G variant
Assay: as above
Remark: another data set of the same source

| Geom. Mean:FL1-H | Binder |
| --- | --- |
| 78.7 | B7 |
| 85.2 | B8 |
| 32.3 | B9 |
| 50.1 | B15 |

These binders were tested against T3, Cynomolgus monkey CD33 (cynomolgus monkey) (assay: Scatchard analysis, HEK293AD cells stably expressing cynomolgus CD33; Scatchard analysis on 293-cynCD33 cells).
T3 construct: Used for recombinant CD33 on HEK293AD cells and endogenous CD33 on cynomolgus CD14+/CD33+ myeloid cells; also called cynoCD33; cyno CD33

| binding result | Binder |
| --- | --- |
| no binding | B7 |

These binders were tested against T1, Human CD33 (assay: FACS titration on EOL-1 cells (endogenous huCD33), geometric mean fluorescence, 0.1-10 µg/ml antibody).

| EC50 | Binder |
| --- | --- |
| 0.54 µg/mL | B1 |
| 0.46 µg/mL | B10 |
| 0.42 µg/mL | B11 |
| 0.23 µg/mL | B12 |

Each binder was assayed against T4, Construct-88B: CD33 Ig-like V (M17-V136 including spacer H137-H143) linked to an irrelevant Ig-like C … (human) (assay: FACS on 293 cells transiently transfected with construct 88B, Dylight-650 labelled antibody at 1-10 µg/ml).
T4 construct: also called Ig-like V domain of huCD33

| Geom. Mean:FL4-H | Binder |
| --- | --- |
| 684 | B2 |
| 366 | B3 |
| 772 | B14 |

These binders were tested against T5, Construct-88: irrelevant Ig-like V linked to a CD33 Ig-like C (R144-Q228 including TM/CD L229) (human) (assay: FACS on 293 cells transiently transfected with construct 88, Dylight-650 labelled antibody at 1-10 µg/ml).
T5 construct: N-terminal or cytoplasmic tags were attached

| Geom. Mean:FL4-H | Binder |
| --- | --- |
| 12.1 | B2 |
| 11.2 | B3 |
| 13 | B14 |

What follows are binders tested against T4, Construct-88B: CD33 Ig-like V (M17-V136 …) (assay: FACS, Dylight-650 labeled antibody (1-10 ug/ml) on 293 cells transiently transfected with construct 88B).

| fold binding over isotype control | Binder |
| --- | --- |
| ≥ 100 fold | B2 |
| ≥ 100 fold | B3 |

The binders below were run against T3, Cynomolgus monkey CD33 (assay: Scatchard analysis, [125I]-labeled antibody competed by unlabeled antibody, HEK293AD cells stably expressing cynomolgus CD33).

| Kd | Binder |
| --- | --- |
| 0.6 nM | B1 |
| 0.7 nM | B2 |
| 0.7 nM | B3 |
| 0.54 nM | B14 |
| 0.3 nM | B4 |
| 0.2 nM | B5 |
| 0.2 nM | B6 |
| 0.92 nM | B8 |
| 4.5 nM | B9 |

Each binder was assayed against T3, Cynomolgus monkey CD33 (assay: FACS, HEK293AD cells stably expressing cynomolgus CD33).

| binding result | Binder |
| --- | --- |
| no binding (tested: 1 mg/ml) | B15 |
